For this test, the target named is T1, CEA-derived … (SEQ ID NO: 71)-HLA-A*0201 complex (biotin on the C-terminal biotinylation tag (enzymatic, BirA)).
T1 construct: also called soluble biotinylated HLA-A2-peptide complex; not shown: C-terminal biotinylation tag that replaces the transmembrane and cytoplasmic domains
Briefly: Biacore SPR, pMHC immobilised. As for the experimental part:
SPR measures changes in refractive index expressed in response units (RU) near a sensor surface within a small flow cell, a principle that can be used to detect receptor ligand interactions and to analyse their affinity and kinetic parameters. The probe flow cells were prepared by immobilising the pMHC complexes in flow cells via biotin-tag binding. The assay was then performed by passing soluble ILT over the surfaces of the different flow cells at a constant flow rate, measuring the SPR response in doing so.

Experimental findings from patent US20110172168A1 (MEDIGENE, published 2011) are described below.

A value given as a limit tells only on which side of the number the result lay.

B1: SEQ ID NO 30 (receptor)
chain: MAGHLPKPTLWAEPGSVITQGSPVTLRCQGGQETQEYRLYREKKTAPWITRIPQELVKKGQFPIPSITWEHAGRYRCYYGSDTSQWSASSDPLELVVTGVYIKPTLSAQPSPVVNSGGNVTLQCDSQVAFDGFILCKEGEDEHPQCLNSQPHARGSSRAIFSVGPVSPSRRWWYRCYAYPIWTPYEWSLPSDLLELDVDG
In general, Kd refers to a measure of binding affinity in units of concentration. Higher therefore signals weaker binding. As a reminder, the koff is the first-order rate constant of dissociation. The low end stands for a long-lived complex, the high end for a short-lived complex. On to B1, for which the Kd is no more than 1000 nM and the koff was no more than 2 s⁻¹.

B2: SEQ ID NO 40 (receptor)
chain: MAGHLPKPTLWAEPGSVITQGSPVTLRCQGGQETQEYRLYREKKTAPWITRIPQELVKKGQFPIPSITWEHAGRYRCYYGSDTSQWSASSDPLELVVTGVYIKPTLSAQPSPVVNSGGNVTLQCDSQVAFDGFILCKEGEDEHPQCLNSQPHARGSSRAIFSVGPVSPSRRWWYRCYAYMSWSPYEWSLPSDLLELDVDG
Consider B2, for which the Kd was no more than 1000 nM and the koff is no more than 2 s⁻¹.

B3: SEQ ID NO 57 (receptor)
chain: MAGHLPKPTLWAEPGSVITMDQPVTLRCQGGQETQEYRLYREKKTAPWITRIPQELVKKGQFPIPSITWEHAGRYRCYYGSDTSQWSASSDPLELVVTGVYIKPTLSAQPSPVVNSGGNVTLQCDSQVAFDGFILCKEGEDEHPQCLNSQPHARGSSRAIFSVGPVSPSRRWWYRCYAYDSNSPYEWTRGSDLLELDVDG
Turning to B3, the Kd was no more than 1000 nM and the koff was no more than 2 s⁻¹.

B4: SEQ ID NO 38 (receptor)
chain: MAGHLPKPTLWAEPGSVITQGSPVTLRCQGGQETQEYRLYREKKTAPWITRIPQELVKKGQFPIPSITWEHAGRYRCYYGSDTSQWSASSDPLELVVTGVYIKPTLSAQPSPVVNSGGNVTLQCDSQVAFDGFILCKEGEDEHPQCLNSQPHARGSSRAIFSVGPVSPSRRWWYRCYAYMSWAPYEWSLPSDLLELDVDG
In turn, B4 had a Kd of no more than 1000 nM and a koff of no more than 2 s⁻¹.

B5: SEQ ID NO 36 (receptor)
chain: MAGHLPKPTLWAEPGSVITQGSPVTLRCQGGQETQEYRLYREKKTAPWITRIPQELVKKGQFPIPSITWEHAGRYRCYYGSDTSQWSASSDPLELVVTGVYIKPTLSAQPSPVVNSGGNVTLQCDSQVAFDGFILCKEGEDEHPQCLNSQPHARGSSRAIFSVGPVSPSRRWWYRCYAYPAWTPYEWSLPSDLLELDVDG
The molecule B5 gave a Kd of no more than 1000 nM and a koff of no more than 2 s⁻¹.

B6: SEQ ID NO 54 (receptor)
chain: MAGHLPKPTLWAEPGSVITMDQPVTLRCQGGQETQEYRLYREKKTAPWITRIPQELVKKGQFPIPSITWEHAGRYRCYYGSDTSQWSASSDPLELVVTGVYIKPTLSAQPSPVVNSGGNVTLQCDSQVAFDGFILCKEGEDEHPQCLNSQPHARGSSRAIFSVGPVSPSRRWWYRCYAYPIWTPYEWSTSSDLLELDVDG
B6: the Kd is no more than 1000 nM and the koff is no more than 2 s⁻¹.

B7: SEQ ID NO 53 (receptor)
chain: MAGHLPKPTLWAEPGSVITMDQPVTLRCQGGQETQEYRLYREKKTAPWITRIPQELVKKGQFPIPSITWEHAGRYRCYYGSDTSQWSASSDPLELVVTGVYIKPTLSAQPSPVVNSGGNVTLQCDSQVAFDGFILCKEGEDEHPQCLNSQPHARGSSRAIFSVGPVSPSRRWWYRCYAYPIWTPYEWTRGSDLLELDVDG
Molecule B7 showed a Kd of no more than 1000 nM and a koff of no more than 2 s⁻¹.

B8: SEQ ID NO 45 (receptor)
chain: MAGHLPKPTLWAEPGSVITMDQPVTLRCQGGQETQEYRLYREKKTAPWITRIPQELVKKGQFPIPSITWEHAGRYRCYYGSDTSQWSASSDPLELVVTGVYIKPTLSAQPSPVVNSGGNVTLQCDSQVAFDGFILCKEGEDEHPQCLNSQPHARGSSRAIFSVGPVSPSRRWWYRCYAYMSNSPYEWSLPSDLLELDVDG
B8 had a Kd of no more than 1000 nM and a koff of no more than 2 s⁻¹.

B9: SEQ ID NO 58 (receptor)
chain: MAGHLPKPTLWAEPGSVITMDQPVTLRCQGGQETQEYRLYREKKTAPWITRIPQELVKKGQFPIPSITWEHAGRYRCYYGSDTSQWSASSDPLELVVTGVYIKPTLSAQPSPVVNSGGNVTLQCDSQVAFDGFILCKEGEDEHPQCLNSQPHARGSSRAIFSVGPVSPSRRWWYRCYAYDSNSPYEWSQMSDLLELDVDG
B9: the Kd is no more than 1000 nM and the koff was no more than 2 s⁻¹.

B10: SEQ ID NO 43 (receptor)
chain: MAGHLPKPTLWAEPGSVITMDQPVTLRCQGGQETQEYRLYREKKTAPWITRIPQELVKKGQFPIPSITWEHAGRYRCYYGSDTSQWSASSDPLELVVTGVYIKPTLSAQPSPVVNSGGNVTLQCDSQVAFDGFILCKEGEDEHPQCLNSQPHARGSSRAIFSVGPVSPSRRWWYRCYAYMSYSPYEWSLPSDLLELDVDG
Molecule B10 gave a Kd of no more than 1000 nM and a koff of no more than 2 s⁻¹.

B11: SEQ ID NO 59 (receptor)
chain: MAGHLPKPTLWAEPGSVITMDQPVTLRCQGGQETQEYRLYREKKTAPWITRIPQELVKKGQFPIPSITWEHAGRYRCYYGSDTSQWSASSDPLELVVTGVYIKPTLSAQPSPVVNSGGNVTLQCDSQVAFDGFILCKEGEDEHPQCLNSQPHARGSSRAIFSVGPVSPSRRWWYRCYAYDSNSPYEWSSGSDLLELDVDG
As to B11, the Kd is no more than 1000 nM and the koff is no more than 2 s⁻¹.

B12: SEQ ID NO 34 (receptor)
chain: MAGHLPKPTLWAEPGSVITQGSPVTLRCQGGQETQEYRLYREKKTAPWITRIPQELVKKGQFPIPSITWEHAGRYRCYYGSDTSQWSASSDPLELVVTGVYIKPTLSAQPSPVVNSGGNVTLQCDSQVAFDGFILCKEGEDEHPQCLNSQPHARGSSRAIFSVGPVSPSRRWWYRCYAYMNWAPYEWSLPSDLLELDVDG
Molecule B12 displayed a Kd of no more than 1000 nM and a koff of no more than 2 s⁻¹.

B13: SEQ ID NO 46 (receptor)
chain: MAGHLPKPTLWAEPGSVITMDQPVTLRCQGGQETQEYRLYREKKTAPWITRIPQELVKKGQFPIPSITWEHAGRYRCYYGSDTSQWSASSDPLELVVTGVYIKPTLSAQPSPVVNSGGNVTLQCDSQVAFDGFILCKEGEDEHPQCLNSQPHARGSSRAIFSVGPVSPSRRWWYRCYAYDSWSPYEWSLPSDLLELDVDG
B13 showed a Kd of no more than 1000 nM and a koff of no more than 2 s⁻¹.

B14: SEQ ID NO 44 (receptor)
chain: MAGHLPKPTLWAEPGSVITMDQPVTLRCQGGQETQEYRLYREKKTAPWITRIPQELVKKGQFPIPSITWEHAGRYRCYYGSDTSQWSASSDPLELVVTGVYIKPTLSAQPSPVVNSGGNVTLQCDSQVAFDGFILCKEGEDEHPQCLNSQPHARGSSRAIFSVGPVSPSRRWWYRCYAYPAYTPYEWSLPSDLLELDVDG
Consider B14, for which the Kd was no more than 1000 nM and the koff was no more than 2 s⁻¹.

B15: SEQ ID NO 52 (receptor)
chain: MAGHLPKPTLWAEPGSVITMDQPVTLRCQGGQETQEYRLYREKKTAPWITRIPQELVKKGQFPIPSITWEHAGRYRCYYGSDTSQWSASSDPLELVVTGVYIKPTLSAQPSPVVNSGGNVTLQCDSQVAFDGFILCKEGEDEHPQCLNSQPHARGSSRAIFSVGPVSPSRRWWYRCYAYPIWTPYEWSQMSDLLELDVDG
Molecule B15 displayed a Kd of no more than 1000 nM and a koff of no more than 2 s⁻¹.

B16: SEQ ID NO 47 (receptor)
chain: MAGHLPKPTLWAEPGSVITMDQPVTLRCQGGQETQEYRLYREKKTAPWITRIPQELVKKGQFPIPSITWEHAGRYRCYYGSDTSQWSASSDPLELVVTGVYIKPTLSAQPSPVVNSGGNVTLQCDSQVAFDGFILCKEGEDEHPQCLNSQPHARGSSRAIFSVGPVSPSRRWWYRCYAYMSNAPYEWSLPSDLLELDVDG
Molecule B16 registered a Kd of no more than 1000 nM and a koff of no more than 2 s⁻¹.

B17: SEQ ID NO 56 (receptor)
chain: MAGHLPKPTLWAEPGSVITMDQPVTLRCQGGQETQEYRLYREKKTAPWITRIPQELVKKGQFPIPSITWEHAGRYRCYYGSDTSQWSASSDPLELVVTGVYIKPTLSAQPSPVVNSGGNVTLQCDSQVAFDGFILCKEGEDEHPQCLNSQPHARGSSRAIFSVGPVSPSRRWWYRCYAYPIWTPYEWTLGSDLLELDVDG
The molecule B17 showed a Kd of no more than 1000 nM and a koff of no more than 2 s⁻¹.

B18: SEQ ID NO 55 (receptor)
chain: MAGHLPKPTLWAEPGSVITMDQPVTLRCQGGQETQEYRLYREKKTAPWITRIPQELVKKGQFPIPSITWEHAGRYRCYYGSDTSQWSASSDPLELVVTGVYIKPTLSAQPSPVVNSGGNVTLQCDSQVAFDGFILCKEGEDEHPQCLNSQPHARGSSRAIFSVGPVSPSRRWWYRCYAYPIWTPYEWSSGSDLLELDVDG
B18 had a Kd of no more than 1000 nM and a koff of no more than 2 s⁻¹.

B19: SEQ ID NO 32 (receptor)
chain: MAGHLPKPTLWAEPGSVITQGSPVTLRCQGGQETQEYRLYREKKTAPWITRIPQELVKKGQFPIPSITWEHAGRYRCYYGSDTSQWSASSDPLELVVTGVYIKPTLSAQPSPVVNSGGNVTLQCDSQVAFDGFILCKEGEDEHPQCLNSQPHARGSSRAIFSVGPVSPSRRWWYRCYAYVAWAPYEWSLPSDLLELDVDG
Consider B19, for which the Kd is no more than 1000 nM and the koff was no more than 2 s⁻¹.

B20: SEQ ID NO 48 (receptor)
chain: MAGHLPKPTLWAEPGSVITMDQPVTLRCQGGQETQEYRLYREKKTAPWITRIPQELVKKGQFPIPSITWEHAGRYRCYYGSDTSQWSASSDPLELVVTGVYIKPTLSAQPSPVVNSGGNVTLQCDSQVAFDGFILCKEGEDEHPQCLNSQPHARGSSRAIFSVGPVSPSRRWWYRCYAYDSWAPYEWSLPSDLLELDVDG
The molecule B20 had a Kd of no more than 1000 nM and a koff of no more than 2 s⁻¹.

B21: SEQ ID NO 51 (receptor)
chain: MAGHLPKPTLWAEPGSVITMDQPVTLRCQGGQETQEYRLYREKKTAPWITRIPQELVKKGQFPIPSITWEHAGRYRCYYGSDTSQWSASSDPLELVVTGVYIKPTLSAQPSPVVNSGGNVTLQCDSQVAFDGFILCKEGEDEHPQCLNSQPHARGSSRAIFSVGPVSPSRRWWYRCYAYPIWTPYEWSLGSDLLELDVDG
For the molecule B21, the Kd was no more than 1000 nM and the koff is no more than 2 s⁻¹.
